# From patent publication US20210380699A1 (published 2021)
# Residue numbers refer to the chain shown, from its start.
# B1: 416E01 (human IgG1) (antibody, V domains shown)
# VH: EVQLAESGGGLVQPGGSLRLSCAASGFTFSNYAMSWVRQTPGKGLEWVSAISFSGGTTYYADSVKGRFTISRDNSKNTLYLHMNSLRADDTAVYYCAKDEAPAGATFFDSWGQGTLVTVSS
# VL: DIQMTQSPSSVSASVGDRVTITCRASQGIRRWLAWYQQKPGKAPKLLISGASSLQSGVPSRFSGSGSGTDFTLIITSLQPEDFATYYCQQANSFPITFGQGTRLEIKR
# B2: 413D08 (antibody, human IgG1, kappa, V domains shown)
# VH: QVQLVESGGGVVQPGRSLRLSCAASGFTFRIYGMHWVRQAPGKGLEWVAVIWYDGSNKYYADSVKGRFTISRDNSDNTLYLQMNSLRAEDTAVYYCARDMDYFGMDVWGQGTTVTVSS
# VL: DLQMTQSPSSLSASVGDRVTITCRASQGIRNDLGWYQQKPGKAPKRLIYAASSLQSGVPSRFSGSGSGTEFTLTISSLQPEDFATYYCLQHNSYPRTFGQGTKVEIKR
# B3: 411D07 (antibody, human IgG1, kappa, V domains shown)
# VH: QVQLQESGPGLVKPSGTLSLTCIVSGGSIISSDWWNWVRQPPGKGLEWIGEIFHSGRTNYNPSLKSRVTISIDKSKNQFSLRLSSVTAADTAVYYCARDGSGSYWGQGTLVTVSS
# VL: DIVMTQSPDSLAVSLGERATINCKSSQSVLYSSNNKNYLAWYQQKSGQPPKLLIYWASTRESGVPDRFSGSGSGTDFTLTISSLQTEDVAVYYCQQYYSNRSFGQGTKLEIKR
# B4: 386H03 (antibody, human IgG1, kappa, V domains shown)
# VH: B3 VH with I23A, I30S, N36S, R57N, I72V, F79I, S84N, A97V
# VL: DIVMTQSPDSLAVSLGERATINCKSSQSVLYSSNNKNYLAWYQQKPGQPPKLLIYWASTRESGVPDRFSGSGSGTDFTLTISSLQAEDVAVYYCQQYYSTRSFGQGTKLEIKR
# B5: 1D05 V to A & F to S change in VH (Seq ID No: 342), IgG1 disabled (LAGA), with 1D05 kappa (antibody, V domains shown)
# VH: EVQLVESGGGLVQPGRSLRLSCAASGFTFDDYAMHWVRQAPGKGLEWVSGISWIRTGIGYADSVKGRFTISRDNAKNSLYLQMNSLRAEDTALYYCAKDMKGSGTYGGWFDTWGQGTLVTVSS
# VL: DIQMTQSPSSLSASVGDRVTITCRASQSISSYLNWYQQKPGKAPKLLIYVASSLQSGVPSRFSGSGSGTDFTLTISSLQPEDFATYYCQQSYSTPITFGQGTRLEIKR
# notes: Entry 342 is a whole heavy chain; also called 1D05 HC mutant 4
# B6: 1D05 F to S change in VH (Seq ID No: 48), IgG1 disabled (LAGA), with 1D05 kappa (antibody, V domains shown)
# VH: B5 VH with A40V
# VL: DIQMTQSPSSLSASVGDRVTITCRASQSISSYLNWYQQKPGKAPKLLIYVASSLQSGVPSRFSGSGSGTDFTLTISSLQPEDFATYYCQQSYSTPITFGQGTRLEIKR
# notes: Entry 48 is a whole heavy chain; also called 1D05 HC mutant 2
# B7: 1D05 V to A change in VH (Seq ID No: 47), IgG1 disabled (LAGA), with 1D05 kappa V to A change (Seq ID No: 50) (antibody, V domains shown)
# VH: B5 VH with S71F
# VL: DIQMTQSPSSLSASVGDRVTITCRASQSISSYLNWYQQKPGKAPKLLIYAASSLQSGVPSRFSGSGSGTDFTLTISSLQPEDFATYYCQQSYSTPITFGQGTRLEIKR
# notes: See note of m58
# B8: 1D05 V to A change in VH (Seq ID No: 47), IgG1 disabled (LAGA), with 1D05 kappa (antibody, V domains shown)
# VH: B5 VH with S71F
# VL: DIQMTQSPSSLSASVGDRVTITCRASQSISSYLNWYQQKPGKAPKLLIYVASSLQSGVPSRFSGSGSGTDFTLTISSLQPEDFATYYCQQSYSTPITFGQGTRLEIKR
# notes: Listing entry 47 is a whole heavy chain said to carry the IgG1 disabled (LAGA) constant region; also called 1D05 HC mutant 1
# B9: 1D05 F to S change in VH (Seq ID No: 48), IgG1 disabled (LAGA), with 1D05 kappa V to A change (Seq ID No: 50) (antibody, V domains shown)
# VH: B5 VH with A40V
# VL: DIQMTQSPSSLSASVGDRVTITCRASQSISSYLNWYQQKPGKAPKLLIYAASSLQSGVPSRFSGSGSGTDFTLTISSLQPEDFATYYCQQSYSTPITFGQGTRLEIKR
# notes: See note of m59
# B10: 1D05 - IgG1 disabled (LAGA) with 1D05 kappa, V to A change (Seq ID No: 50) (antibody, V domains shown)
# VH: B5 VH with A40V, S71F
# VL: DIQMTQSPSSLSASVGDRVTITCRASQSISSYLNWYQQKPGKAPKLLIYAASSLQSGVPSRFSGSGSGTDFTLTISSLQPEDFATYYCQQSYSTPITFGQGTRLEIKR
# notes: also called 1D05 LC mutant 1
# B11: 1D05 V to A & F to S change in VH (Seq ID No: 342), IgG1 disabled (LAGA), with 1D05 kappa V to A change (Seq ID No: 50) (antibody, V domains shown)
# VH: B5 VH
# VL: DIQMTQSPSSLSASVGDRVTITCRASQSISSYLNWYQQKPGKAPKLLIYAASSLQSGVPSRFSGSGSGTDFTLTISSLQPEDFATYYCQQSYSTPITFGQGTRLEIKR
# notes: See note of m60
# B12: 413G05 (antibody, human IgG1, kappa, V domains shown)
# VH: QVQLVESGGGLVKPGGSLRLSCAASGFTFSDYYMSWIRQVPGKGLEWVSYISTSGSTIYYADSVKGRFTISRDNAKNSLYLQMNSLRAEDAAVYHCARGITGTNFYHYGLGVWGQGTTVTVSS
# VL: DIQMTQSPSSVSASVGDRVTITCRASQGINSWLAWYQQKPGKAPKLLIYAASTLQSGVPSRFSGSGSGADFTLTISSLQPEDFATYYCQQVNSFPLTFGGGTKVEIKR
# B13: 389A03 (antibody, human IgG1, kappa, V domains shown)
# VH: QLQESGPGLVKPSETLSLTCTVSGGSISSSSYYCGWIRQPPGKGLDWIGSIYSTGYTYYNPSLKSRVTISIDTSKNQFSCLILTSVTAADTAVYYCAISTAAGPEYFHRWGQGTLVTVSS
# VL: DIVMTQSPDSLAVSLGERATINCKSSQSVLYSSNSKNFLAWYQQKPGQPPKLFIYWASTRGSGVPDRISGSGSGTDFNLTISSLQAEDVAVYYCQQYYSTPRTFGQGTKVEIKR
# B14: 411B08 (antibody, human IgG1, kappa, V domains shown)
# VH: EVQLVESGGGLVQPGGSLRLSCAASGFTFSSYWMSWVRQAPGKGLEWVANIKEDGSEKYYVDSVKGRFTISRDNAKNSLYLQMNSLRAEDTSVYYCARNRLYSDFLDNWGQGTLVTVSS
# VL: DIQMTQSPSSVSASVGDRVTITCRASQGVSSWLAWYQQKSGKAPKLLIYGASSLQSGVPSRFSGSGSGTEFILTISSLQPEDFATYYCQQANSIPFTFGPGTKVDIKR
# B15: 385F01 (antibody, human IgG1, kappa, V domains shown)
# VH: B14 VH
# VL: B14 VL
# B16: 411C04 (antibody, human IgG1, kappa, V domains shown)
# VH: B14 VH with E6D, V64L, N99V, N108Y
# VL: B14 VL with T74S
# What was measured:
# [1] = biological target: T1, Human PD-L1 His (human PD-L1 ECD with C-terminal His tag) (human, UniProt Q9NZQ7 19-238); assay: ELISA, biotin-PD-L1 to plate-bound CD80, antibody titrated
# T1 construct: Biotinylated in ELISA and AlphaScreen assays; also called hPD-L1-his; biotinylated PD-L1 his
# Experimental: (§1) Excess protein was removed by washing with PBS-Tween (0.1% v/v) and the wells were blocked with 1% w/v bovine serum albumin (BSA, Sigma) in PBS for 1 hour at room temperature, after which plates were washed with PBS-Tween as above. 60 μL of a titration (three-fold serial dilution) of antibody was added to a 96-well, non-binding plate diluted in ELISA assay buffer (PBS +0.1% BSA). […] The plate was incubated for 30 minutes before transferring 50 μL to the coated plates. The coated plates were incubated for 1 hour at room temperature. Excess protein was removed by washing with PBS-Tween (0.1% v/v). PD-L1 binding was detected using streptavidin labelled europium (Perkin Elmer) diluted 1/1000 in DELFIA assay buffer (Perkin Elmer). The plates were washed with TBS (Tris buffered saline)-Tween (0.1% v/v) and 50 μL/well of DELFIA Enhancement solution (Perkin Elmer) was added to the plate. Time-resolved fluorescence was measured at 615 nm on an Envision plate reader (PerkinElmer). Percentage specific binding was calculated as defined in Equation 3. IC50 values were determined using GraphPad Prism software by curve fitting using a four-parameter logistic equation (Equation 4). Values for KM121 antibodies are a mean of three independent experiments. Values for KM122 are from a single experiment.
# [2] = biological target: T2, Human PD-L1 expressed on cells (human, UniProt Q9NZQ7 19-290); assay: cell-based or functional assay
# [3] = biological target: T2, Human PD-L1 expressed on cells; assay: flow cytometry on CHO hPD-L1 cells, competitor biotin-PD-1-Fc, n = 2
# Experimental: (§2) 150 μL FACS buffer is added and cells washed as described above. […] Cells are incubated at 4° C. for 60 minutes. Cells are washed twice with 150 μL FACS buffer, centrifuging at 300 g for 3 minutes after each wash step and aspirating supernatant. Cells are fixed, washed and resuspended for analysis as above. APC signal intensity (geometric mean) is measured by flow cytometry using a Beckman Coulter CYTOFLEX instrument. Data is plotted as percentage of receptor binding.
# [4] = biological target: T3, Cyno PD-L1 FLAG (cynomolgus PD-L1 ECD with FLAG tag) (cynomolgus monkey); assay: SPR 25C, antibody captured, PD-L1 analyte
# T3 construct: also called cynomolgus monkey PD-L1-FLAG
# Experimental: (§3) Label-free surface plasmon resonance (SPR) analysis was carried out on the ProteOn XPR36 (BioRad) array SPR machine. An anti-human IgG capture surface was created on a GLC biosensor chip using a combination of anti-human Fc antibodies (Jackson Labs 09-005-008,109-006-008 and 309-006-008) by amine coupling. […] The data was analysed using the 1:1 model inherent to the ProteOn XPR36 analysis software.
# [5] = biological target: T1, Human PD-L1 His (human PD-L1 ECD with …); assay: SPR 25C, antibody captured, PD-L1 analyte
# Experimental: as §3
# Mouse PD-L1 ECD His = biological target: T4, Mouse PD-L1 ECD His (mouse, UniProt Q9EP73 19-239); assay: SPR 25C and 37C
# T4 construct: also called mouse PD-L1 (his-tagged)
# [6] = biological target: T3, Cyno PD-L1 FLAG (cynomolgus PD-L1 ECD …); assay: SPR 37C, antibody captured, PD-L1 analyte
# [7] = biological target: T1, Human PD-L1 His (human PD-L1 ECD with …); assay: SPR 37C, antibody captured, PD-L1 analyte
# [8] = biological target: T2, Human PD-L1 expressed on cells; assay: cell-based or functional assay; remark: listed apart in the source
# [9] = biological target: T2, Human PD-L1 expressed on cells; assay: flow cytometry on CHO hPD-L1 cells, competitor biotin-CD80-Fc, n = 1
# Experimental: as §2
# (§4) All other steps are performed as per plate 2.
# [10] = biological target: T2, Human PD-L1 expressed on cells; assay: cell-based or functional assay; remark: listed apart in the source
# [11] = biological target: T2, Human PD-L1 expressed on cells; assay: flow cytometry on CHO hPD-L1 cells, competitor biotin-PD-1-Fc, n = 1
# Experimental: as §2
# [12] = biological target: T1, Human PD-L1 His (human PD-L1 ECD with …); assay: ELISA, biotin-PD-L1 to plate-bound PD-1, antibody titrated
# Experimental: as §1
# [13] = biological target: T2, Human PD-L1 expressed on cells; assay: flow cytometry on CHO hPD-L1 cells, competitor biotin-CD80-Fc, n = 2
# Experimental: as §2, §4
# [14] = biological target: T1, Human PD-L1 His (human PD-L1 ECD with …); assay: SPR 25C, antibody captured, PD-L1 analyte; remark: listed apart in the source
# T3 sequence (chain, as listed by the source limits assumed): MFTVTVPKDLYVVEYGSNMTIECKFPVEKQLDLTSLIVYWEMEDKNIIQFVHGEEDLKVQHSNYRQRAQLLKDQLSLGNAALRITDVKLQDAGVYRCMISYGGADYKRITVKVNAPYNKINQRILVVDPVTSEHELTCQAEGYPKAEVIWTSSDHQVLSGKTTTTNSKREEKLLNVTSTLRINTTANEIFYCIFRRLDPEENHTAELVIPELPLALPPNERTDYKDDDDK
# T1 sequence (Q9NZQ7 19-238 limits assumed): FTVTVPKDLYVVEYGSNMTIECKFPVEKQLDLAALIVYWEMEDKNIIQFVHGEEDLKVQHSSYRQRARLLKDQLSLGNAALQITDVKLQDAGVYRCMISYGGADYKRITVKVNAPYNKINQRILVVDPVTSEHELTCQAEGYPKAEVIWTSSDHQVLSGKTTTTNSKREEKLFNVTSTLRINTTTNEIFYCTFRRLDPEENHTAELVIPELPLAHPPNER
# T2 sequence (Q9NZQ7 19-290 limits assumed): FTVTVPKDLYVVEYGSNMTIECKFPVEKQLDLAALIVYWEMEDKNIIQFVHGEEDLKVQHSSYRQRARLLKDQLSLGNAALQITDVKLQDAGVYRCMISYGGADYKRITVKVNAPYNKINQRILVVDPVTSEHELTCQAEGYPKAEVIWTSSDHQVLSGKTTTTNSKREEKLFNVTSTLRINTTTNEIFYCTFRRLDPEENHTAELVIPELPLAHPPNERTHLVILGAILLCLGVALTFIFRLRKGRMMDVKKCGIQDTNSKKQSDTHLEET
# T4 sequence (Q9EP73 other isoform, or with tags, fused parts or gaps): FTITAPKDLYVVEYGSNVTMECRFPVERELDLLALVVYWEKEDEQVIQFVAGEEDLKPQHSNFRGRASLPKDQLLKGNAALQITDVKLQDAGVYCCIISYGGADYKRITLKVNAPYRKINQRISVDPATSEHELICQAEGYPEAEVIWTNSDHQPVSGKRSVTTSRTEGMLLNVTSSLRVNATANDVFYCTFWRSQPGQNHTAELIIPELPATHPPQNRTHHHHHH
binder,measurement,setting,value
B1,IC50,[1],0.98 nM
same,"EC50, ADCC reporter assay, n = 1",[2],80 pM
same,"EC50, ADCC reporter assay, n = 2",[2],10.6 pM
same,"EC50, ADCC reporter assay, n = 3",[2],22.9 pM
same,"max fold induction, ADCC reporter assay, n = 1",[2],32.1 fold
same,"max fold induction, ADCC reporter assay, n = 2",[2],33.8 fold
same,"max fold induction, ADCC reporter assay, n = 3",[2],60.2 fold
same,IC50,[3],0.89 nM
same,Kd,[4],0.411 nM
same,Kd,[5],0.193 nM
same,binding result,Mouse PD-L1 ECD His,no binding
same,Kd,[6],0.998 nM
same,Kd,[7],0.511 nM
same,"EC50, IL-2 induction, murine T cell hybridoma assay, n = 1",[8],0.19 nM
same,"EC50, IL-2 induction, murine T cell hybridoma assay, n = 2",[8],0.15 nM
same,"EC50, IL-2 induction, murine T cell hybridoma assay, n = 3",[8],0.14 nM
same,IC50,[9],1.04 nM
same,"mean EC50, IFNγ induction, monocyte-T cell co-culture",[10],0.064 nM
same,"mean fold increase IFNγ, monocyte-T cell co-culture",[10],2.23 fold
same,IC50,[11],0.81 nM
same,IC50,[12],1.72 nM
same,IC50,[13],0.89 nM
B2,IC50,[1],0.67 nM
same,IC50,[12],1.2 nM
B3,IC50,[1],9.06 nM
B4,IC50,[1],0.74 nM
B5,Kd,[14],0.23 nM
B6,Kd,[14],0.23 nM
B7,Kd,[14],2.8 nM
B8,Kd,[14],0.33 nM
B9,Kd,[14],1.94 nM
B10,Kd,[14],2.66 nM
B11,Kd,[14],1.94 nM
B12,IC50,[1],1.1 nM
same,"EC50, ADCC reporter assay, n = 1",[2],21.9 pM
same,"EC50, ADCC reporter assay, n = 2",[2],20.9 pM
same,"EC50, ADCC reporter assay, n = 3",[2],27.5 pM
same,"max fold induction, ADCC reporter assay, n = 1",[2],13.2 fold
same,"max fold induction, ADCC reporter assay, n = 2",[2],16.4 fold
same,"max fold induction, ADCC reporter assay, n = 3",[2],23.4 fold
same,IC50,[3],1.17 nM
same,Kd,[4],0.015 nM
same,Kd,[5],0.024 nM
same,binding result,Mouse PD-L1 ECD His,no binding
same,Kd,[6],0.046 nM
same,Kd,[7],0.05 nM
same,"EC50, IL-2 induction, murine T cell hybridoma assay, n = 1",[8],0.29 nM
same,"EC50, IL-2 induction, murine T cell hybridoma assay, n = 2",[8],0.11 nM
same,"EC50, IL-2 induction, murine T cell hybridoma assay, n = 3",[8],0.29 nM
same,IC50,[9],1.09 nM
same,"mean EC50, IFNγ induction, monocyte-T cell co-culture",[10],0.082 nM
same,"mean fold increase IFNγ, monocyte-T cell co-culture",[10],2.85 fold
same,IC50,[11],1.07 nM
same,IC50,[12],2.02 nM
same,IC50,[13],1.17 nM
B13,IC50,[1],13.2 nM
B14,IC50,[1],1.6 nM
same,IC50,[12],2.22 nM
B15,IC50,[1],1.76 nM
same,IC50,[12],2.25 nM
B16,IC50,[1],1.93 nM
same,IC50,[12],2.45 nM
